In PMC12445079:
Changes are numbered by the printed parent chain. In names and notes the source's numbering stands.

Molecular target: Bacillus subtilis GapA (glyceraldehyde-3-phosphate dehydrogenase), His-tagged (Bacillus subtilis) (UniProt P09124)
Chain of UniProt P09124 (P09124 whole entry): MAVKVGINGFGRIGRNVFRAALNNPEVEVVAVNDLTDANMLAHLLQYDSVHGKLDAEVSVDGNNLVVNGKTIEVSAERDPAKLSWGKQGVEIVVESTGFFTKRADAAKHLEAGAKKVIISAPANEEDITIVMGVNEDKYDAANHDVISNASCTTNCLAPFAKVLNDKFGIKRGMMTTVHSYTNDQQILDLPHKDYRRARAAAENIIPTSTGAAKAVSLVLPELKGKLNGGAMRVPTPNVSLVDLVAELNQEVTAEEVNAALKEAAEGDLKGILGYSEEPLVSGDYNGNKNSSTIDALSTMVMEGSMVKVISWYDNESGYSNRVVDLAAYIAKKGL

B1: Bacillus subtilis HPr-G54D, His-tagged (natural protein)
chain: MAQKTFKVTADSGIHARPATVLVQTASKYDADVNLEYNGKTVNLKSIMGVMSLDIAKGAEITISASGADENDALNALEETMKSEGLGE
catalytic efficiency kcat/KM of GapA with E4P in the presence of HPr-G54D (GAPDH alone: 1.05): 730 M⁻¹ s⁻¹
catalytic efficiency kcat/KM of GapA with G3P in the presence of HPr-G54D (GAPDH alone: 219): 68500 M⁻¹ s⁻¹

B2: Bacillus subtilis HPr-S46E, His-tagged (natural protein)
chain: B1 chain with S46E, D54G
catalytic efficiency kcat/KM of GapA with E4P in the presence of HPr-S46E (GAPDH alone: 1.05): 2600 M⁻¹ s⁻¹
catalytic efficiency kcat/KM of GapA with G3P in the presence of HPr-S46E (GAPDH alone: 219): 38800 M⁻¹ s⁻¹

B3: Bacillus subtilis histidine-containing phosphocarrier protein (HPr), His-tagged (natural protein)
chain: B1 chain with D54G
catalytic efficiency kcat/KM of GapA with E4P in the presence of HPr (GAPDH alone: 1.05): 1880 M⁻¹ s⁻¹
catalytic efficiency kcat/KM of GapA with G3P in the presence of HPr (GAPDH alone: 219): 57400 M⁻¹ s⁻¹

B4: Bacillus subtilis HPr-S46E, G54D, His-tagged (natural protein)
chain: B1 chain with S46E
catalytic efficiency kcat/KM of GapA with E4P in the presence of HPr-G54D, S46E (GAPDH alone: 1.05): 3780 M⁻¹ s⁻¹
catalytic efficiency kcat/KM of GapA with G3P in the presence of HPr-G54D, S46E (GAPDH alone: 219): 164000 M⁻¹ s⁻¹
